Assay results as given in patent US7211565 (ESPERION THERAPEUTICS, dated 2007).
Square brackets hold non-standard residues; d marks the D form. Ends that are not written are not given here.

Biological target: T1, lecithin:cholesterol acyltransferase (LCAT), purified from human plasma (human, UniProt P04180 25-440)
T1 sequence (looked up): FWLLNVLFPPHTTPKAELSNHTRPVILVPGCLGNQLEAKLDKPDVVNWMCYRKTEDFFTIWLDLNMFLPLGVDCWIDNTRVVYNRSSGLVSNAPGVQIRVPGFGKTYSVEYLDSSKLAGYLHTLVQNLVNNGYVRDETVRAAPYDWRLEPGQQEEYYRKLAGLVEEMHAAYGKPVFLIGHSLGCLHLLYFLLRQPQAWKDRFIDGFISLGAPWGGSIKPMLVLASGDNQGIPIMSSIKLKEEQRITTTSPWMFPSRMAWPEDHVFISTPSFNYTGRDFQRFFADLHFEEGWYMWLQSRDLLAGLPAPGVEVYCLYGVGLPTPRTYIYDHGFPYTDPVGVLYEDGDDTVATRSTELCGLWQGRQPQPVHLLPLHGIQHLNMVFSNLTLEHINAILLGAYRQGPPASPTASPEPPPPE
Test: cell-based or functional assay

B1: peptide 55 (SEQ ID NO:55) (peptide)
peptide: [dP]LFRELLNELLEALKQKLK
  ACTIVITY (%) LCAT: 19%
